{"source": "paper PMC6450523", "about": "“Substrate-analogue complex structure of Mycobacterium tuberculosis decaprenyl diphosphate synthase” (Acta Crystallographica. Section F, Structural Biology …, 2019)", "molecular_target": "the molecule itself", "test": "crystal structure; sitting-drop vapour diffusion at 25°C, 0.1 M HEPES pH 7.5, 10% glycerol, 25% PEG 400, 7% PEG 3000; crystals soaked with 1 mM ISPP and 1 mM GSPP for 6 h; 1.55 Å, space group P212121, one dimer in the asymmetric unit"}
{"protein": "Decaprenyl diphosphate synthase from Mycobacterium tuberculosis (enzyme, also called MtDPPS; Rv2361c) MARDARKRTSSNFPQLPPAPDDYPTFPDTSTWPVVFPELPAAPYGGPCRPPQHTSKAAAPRIPADRLPNHVAIVMDGNGRWATQRGLARTEGHKMGEAVVIDIACGAIELGIKWLSLYAFSTENWKRSPEEVRFLMGFNRDVVRRRRDTLKKLGVRIRWVGSRPRLWRSVINELAVAEEMTKSNDVITINYCVNYGGRTEITEATREIAREVAAGRLNPERITESTIARHLQRPDIPDVDLFLRTSGEQRSSNFMLWQAAYAEYIFQDKLWPDYDRRDLWAACEEYASRTRRFGSA", "values": [{"measurement": "stoichiometry N", "value": 2}]}
